Laboratory results as given in article PMC3413145.
Where two headings read alike, the source gives them in different places.

B1: rrnAP3 promoter fragment (150 bp) (dsDNA)
DNA 1: ATCGAACGGGTATGCTGTTAGGCGACGGTCACCTATGGATATCTATGGATGACCGAACCTGGTCTTGACTCCATTGCCGGATTTGTATTAGACTGGCAGGGTTGCCCCGAAGCGGGCGGAAACAAGCAAGCGTGTTGTTTGAGAACTCAA
DNA 2: TTGAGTTCTCAAACAACACGCTTGCTTGTTTCCGCCCGCTTCGGGGCAACCCTGCCAGTCTAATACAAATCCGGCAATGGAGTCAAGACCAGGTTCGGTCATCCATAGATATCCATAGGTGACCGTCGCCTAACAGCATACCCGTTCGAT
B2: sinP3 promoter fragment (127 bp) (dsDNA)
DNA 1: TTTAAACAAAAAGTCTGCTCATCCTGGTCCGGCAGCCAGAAGTCATACCGTAAATCCTTTCTGAATGTGCTATAATATCACAAGGAAGGTGATGACATTGATTGGCCAGCGTATTAAACAATACCGT
DNA 2: ACGGTATTGTTTAATACGCTGGCCAATCAATGTCATCACCTTCCTTGTGATATTATAGCACATTCAGAAAGGATTTACGGTATGACTTCTGGCTGCCGGACCAGGATGAGCAGACTTTTTGTTTAAA

How the values were obtained:
Experiment in all cases: EMSA
[1] = target: RNAP core enzyme (alpha2 beta beta' omega);sigmaA (Mycobacterium tuberculosis (H37Rv for …, UniProt P9WGZ1;P9WGY9;P9WGY7;P9WGY5;P9WGI1 1-347;1-1178;1-1316;1-110;1-528, |))
[2] = target: E. coli RNAP core enzyme;sigmaA (Escherichia coli;Mycobacterium …, UniProt P0A7Z4;P0A8V2;P0A8T7;P0A800;P9WGI1 1-329;1-1342;1-1407;1-91;1-528, |)
[3] = target: T1, RNAP core enzyme (alpha2 beta beta' omega);sigmaA;RbpA (Mycobacterium tuberculosis (H37Rv for …, UniProt P9WGZ1;P9WGY9;P9WGY7;P9WGY5;P9WGI1;P9WHJ5 1-347;1-1178;1-1316;1-110;1-528;1-111, ||))
[4] = target: T1, RNAP core enzyme (alpha2 beta beta' …); remark: listed apart in the source

Binder | binding result [1] | binding result [2] | binding result [3] | binding result [4]
B1 | binds | binds | binds | –
B2 | – | – | – | binds
